Test results as given in IntAct's records for PubMed 23357641.

B1: Nephronectin (Mus musculus), Q91V88 (parent)
chain: MAVLLAAVLASSLYLQVAADFDGRWPRQIVSSIGLCRYGGRIDCCWGWARQSWGQCQPVCQPQCKHGECVGPNKCKCHPGFAGKTCNQDLNECGLKPRPCKHRCMNTFGSYKCYCLNGYMLLPDGSCSSALSCSMANCQYGCDVVKGQVRCQCPSPGLQLAPDGRTCVDIDECATGRVSCPRFRQCVNTFGSYICKCHTGFDLMYIGGKYQCHDIDECSLGQHQCSSYARCYNIHGSYKCQCRDGYEGDGLNCVYIPKVMIEPSGPIHMPERNGTISKGDGGHANRIPDAGSTRWPLKTPYIPPVITNRPTSKPTTRPTPNPTPQPTPPPPPPLPTEPRTTPLPPTPERPSTRPTTIAPATSTTTRVITVDNRIQTDPQKPRGDVFIPRQPTNDLFEIFEIERGVSADEEVKDDPGILIHSCNFDHGLCGWIREKDSDLHWETARDPAGGQYLTVSAAKAPGGKAARLVLRLGHLMHSGDLCLSFRHKVTGLHSGTLQVFVRKHGTHGAALWGRNGGHGWRQTQITLRGADVKSVIFKGEKRRGHTGEIGLDDVSLKRGRC

Variants of: B1
Conditions: with agrin_human AGRN

Variant	effect of a mutation on the interaction
MAVLLAAVLASSLYLQVAADFDGRWPRQIVSSIGLCRYGGRIDCCWGWARQSWGQCQPVCQPQCKHGECVGPNKCKCHPGFAGKTCNQDLNECGLKPRPCKHRCMNTFGSYKCYCLNGYMLLPDGSCSSALSCSMANCQYGCDVVKGQVRCQCPSPGLQLAPDGRTCVDIDECATGRVSCPRFRQCVNTFGSYICKCHTGFDLMYIGGKYQCHDIDECSLGQHQCSSYARCYNIHGSYKCQCRDGYEGDGLNCVYIPKVMIEPSGPIHMPERNGTISKGDGGHANRIPDAGSTRWPLKTPYIPPVITNRPTSKPTTRPTPNPTPQPTPPPPPPLPTEPRTTPLPPTPERPSTRPTTIAPATSTTTRVITVDNRIQTDPQKPRGDVFIPRQPTNDLFEIFEIERGVSADEEVKDDPGILIHSCNFDHGLCGWIREKDSDLHWETAADPAGGQYLTVSAAKAPGGKAARLVLRLGHLMHSGDLCLSFRHKVTGLHSGTLQVFVRKHGTHGAALWGRNGGHGWRQTQITLRGADVKSVIFKGEKRRGHTGEIGLDDVSLKRGRC [R445A]	decreasing interaction
MAVLLAAVLASSLYLQVAADFDGRWPRQIVSSIGLCRYGGRIDCCWGWARQSWGQCQPVCQPQCKHGECVGPNKCKCHPGFAGKTCNQDLNECGLKPRPCKHRCMNTFGSYKCYCLNGYMLLPDGSCSSALSCSMANCQYGCDVVKGQVRCQCPSPGLQLAPDGRTCVDIDECATGRVSCPRFRQCVNTFGSYICKCHTGFDLMYIGGKYQCHDIDECSLGQHQCSSYARCYNIHGSYKCQCRDGYEGDGLNCVYIPKVMIEPSGPIHMPERNGTISKGDGGHANRIPDAGSTRWPLKTPYIPPVITNRPTSKPTTRPTPNPTPQPTPPPPPPLPTEPRTTPLPPTPERPSTRPTTIAPATSTTTRVITVDNRIQTDPQKPRGDVFIPRQPTNDLFEIFEIERGVSADEEVKDDPGILIHSCNFDHGLCGWIREKDSDLHWETARDPAGGQYLTVSAAKAPGGKAARLVLRLGHLMHSGDLCLSFRHKVTGLHSGTLQVFVRKHGTHGAALWGRNGGHGWRQTQITLRGADVKSVIFKGEAAAGHTGEIGLDDVSLKRGRC [K541A;R542A;R543A]	decreasing interaction
MAVLLAAVLASSLYLQVAADFDGRWPRQIVSSIGLCRYGGRIDCCWGWARQSWGQCQPVCQPQCKHGECVGPNKCKCHPGFAGKTCNQDLNECGLKPRPCKHRCMNTFGSYKCYCLNGYMLLPDGSCSSALSCSMANCQYGCDVVKGQVRCQCPSPGLQLAPDGRTCVDIDECATGRVSCPRFRQCVNTFGSYICKCHTGFDLMYIGGKYQCHDIDECSLGQHQCSSYARCYNIHGSYKCQCRDGYEGDGLNCVYIPKVMIEPSGPIHMPERNGTISKGDGGHANRIPDAGSTRWPLKTPYIPPVITNRPTSKPTTRPTPNPTPQPTPPPPPPLPTEPRTTPLPPTPERPSTRPTTIAPATSTTTRVITVDNRIQTDPQKPRGDVFIPRQPTNDLFEIFEIERGVSADEEVKDDPGILIHSCNFDHGLCGWIREKDSDLHWETARDPAGGQYLTVSAAKAPGGKAARLVLRLGHLMHSGDLCLSFRHKVTGLHSGTLQVFVRKHGTHGAALWGRNGGHGWRQTQITLRGADVKSVIFKGEKRRGHTGEIGLDDVSLAAAAC [K557A;R558A;G559A;R560A]	decreasing interaction

Now from value to variant:

effect of a mutation on the interaction	Variant
decreasing interaction	MAVLLAAVLASSLYLQVAADFDGRWPRQIVSSIGLCRYGGRIDCCWGWARQSWGQCQPVCQPQCKHGECVGPNKCKCHPGFAGKTCNQDLNECGLKPRPCKHRCMNTFGSYKCYCLNGYMLLPDGSCSSALSCSMANCQYGCDVVKGQVRCQCPSPGLQLAPDGRTCVDIDECATGRVSCPRFRQCVNTFGSYICKCHTGFDLMYIGGKYQCHDIDECSLGQHQCSSYARCYNIHGSYKCQCRDGYEGDGLNCVYIPKVMIEPSGPIHMPERNGTISKGDGGHANRIPDAGSTRWPLKTPYIPPVITNRPTSKPTTRPTPNPTPQPTPPPPPPLPTEPRTTPLPPTPERPSTRPTTIAPATSTTTRVITVDNRIQTDPQKPRGDVFIPRQPTNDLFEIFEIERGVSADEEVKDDPGILIHSCNFDHGLCGWIREKDSDLHWETARDPAGGQYLTVSAAKAPGGKAARLVLRLGHLMHSGDLCLSFRHKVTGLHSGTLQVFVAAAGTHGAALWGRNGGHGWRQTQITLRGADVKSVIFKGEKRRGHTGEIGLDDVSLKRGRC [R502A;K503A;H504A]
decreasing interaction	MAVLLAAVLASSLYLQVAADFDGRWPRQIVSSIGLCRYGGRIDCCWGWARQSWGQCQPVCQPQCKHGECVGPNKCKCHPGFAGKTCNQDLNECGLKPRPCKHRCMNTFGSYKCYCLNGYMLLPDGSCSSALSCSMANCQYGCDVVKGQVRCQCPSPGLQLAPDGRTCVDIDECATGRVSCPRFRQCVNTFGSYICKCHTGFDLMYIGGKYQCHDIDECSLGQHQCSSYARCYNIHGSYKCQCRDGYEGDGLNCVYIPKVMIEPSGPIHMPERNGTISKGDGGHANRIPDAGSTRWPLKTPYIPPVITNRPTSKPTTRPTPNPTPQPTPPPPPPLPTEPRTTPLPPTPERPSTRPTTIAPATSTTTRVITVDNRIQTDPQKPRGDVFIPRQPTNDLFEIFEIERGVSADEEVKDDPGILIHSCNFDHGLCGWIREKDSDLHWETARDPAGGQYLTVSAAKAPGGKAARLVLRLGHLMHSGDLCLSFRHKVTGLHSGTLQVFVRKHGTHGAALWGRNGGHGWRQTQITLAGADVKSVIFKGEKRRGHTGEIGLDDVSLKRGRC [R528A]
decreasing interaction	MAVLLAAVLASSLYLQVAADFDGRWPRQIVSSIGLCRYGGRIDCCWGWARQSWGQCQPVCQPQCKHGECVGPNKCKCHPGFAGKTCNQDLNECGLKPRPCKHRCMNTFGSYKCYCLNGYMLLPDGSCSSALSCSMANCQYGCDVVKGQVRCQCPSPGLQLAPDGRTCVDIDECATGRVSCPRFRQCVNTFGSYICKCHTGFDLMYIGGKYQCHDIDECSLGQHQCSSYARCYNIHGSYKCQCRDGYEGDGLNCVYIPKVMIEPSGPIHMPERNGTISKGDGGHANRIPDAGSTRWPLKTPYIPPVITNRPTSKPTTRPTPNPTPQPTPPPPPPLPTEPRTTPLPPTPERPSTRPTTIAPATSTTTRVITVDNRIQTDPQKPRGDVFIPRQPTNDLFEIFEIERGVSADEEVKDDPGILIHSCNFDHGLCGWIREKDSDLHWETARDPAGGQYLTVSAAKAPGGKAARLVLALGHLMHSGDLCLSFRHKVTGLHSGTLQVFVRKHGTHGAALWGRNGGHGWRQTQITLRGADVKSVIFKGEKRRGHTGEIGLDDVSLKRGRC [R471A]
decreasing interaction	MAVLLAAVLASSLYLQVAADFDGRWPRQIVSSIGLCRYGGRIDCCWGWARQSWGQCQPVCQPQCKHGECVGPNKCKCHPGFAGKTCNQDLNECGLKPRPCKHRCMNTFGSYKCYCLNGYMLLPDGSCSSALSCSMANCQYGCDVVKGQVRCQCPSPGLQLAPDGRTCVDIDECATGRVSCPRFRQCVNTFGSYICKCHTGFDLMYIGGKYQCHDIDECSLGQHQCSSYARCYNIHGSYKCQCRDGYEGDGLNCVYIPKVMIEPSGPIHMPERNGTISKGDGGHANRIPDAGSTRWPLKTPYIPPVITNRPTSKPTTRPTPNPTPQPTPPPPPPLPTEPRTTPLPPTPERPSTRPTTIAPATSTTTRVITVDNRIQTDPQKPRGDVFIPRQPTNDLFEIFEIERGVSADEEVKDDPGILIHSCNFDHGLCGWIREKDSDLHWETARDPAGGQYLTVSAAAAPGGAAARLVLRLGHLMHSGDLCLSFRHKVTGLHSGTLQVFVRKHGTHGAALWGRNGGHGWRQTQITLRGADVKSVIFKGEKRRGHTGEIGLDDVSLKRGRC [K459A;K464A]
